Measured values taken from the supplement of paper PMC6755084.

B1: minF1; a variant is named by its letters at N, in order (parent)
chain: GAGACCGCAACTGAAAAGTTGTTANNNNAANGNNNGGTTGAATTTCTGCACGTAGAAGCAAAAGGC
B2: minF1; a variant is named by its letters at N, in order (parent)
chain: GAGACCGCAACTGAAAAGTTGTTATCAGAAATGNNNGGNTNNNTTTCTGCACGTAGAAGCAAAAGGC

Variants of: B1
Assay: fraction ligated after 30 min (ligated reads / total reads); higher = more ligase activity
Conditions: with F1*subA RNA substrate (template-directed ligation), 42 °C
In short: (§1)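 RNAs for minimized ligase ribozyme variants were transcribed with T7 from PCR-amplified oligo-pool templates and purified on gels. Ligated and unligated species were resolved on gels, converted to cDNA with barcoded primers, and read on a MiSeq with core bases filtered at quality ≥30. Fraction ligated per variant is the ratio of ligated reads to total reads.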

Going from GAGACCGCAACTGAAAAGTTGTTATCAGAAAGGTGGGTTGAATTTCTGCACGTAGAAGCAAAAGGC [TCAGAGTG] to GAGACCGCAACTGAAAAGTTGTTATCAAAATGGTGGGTTGAATTTCTGCACGTAGAAGCAAAAGGC [TCAATGTG], the fraction ligated falls from 0.0048 to 0.00417.

First: GAGACCGCAACTGAAAAGTTGTTTCAGAAATGGTGGGTTGAATTTCTGCACGTAGAAGCAAAAGGC [CAGATGTG A24T]
Second: GAGACCGCAACTGAAAAGTTGTTATCAGATGGATGGGTTGAATTTCTGCACGTAGAAGCAAAAGGC [TCAGGATG A30T]
The fraction ligated of the first is lower: 0.00498 for the first, 0.163 for the second.

First: GAGACCGCAACTGAAAAGTTGTTATCAGAAAGGATGGTTGAATTTCTGCACGTAGAAGCAAAAGGC [TCAGAGAT]
Second: GAGACCGCAACTGAAAAGTTGTTATCAGAAAGGAGGGTTGAATTTCTGCACGTAGAAGCAAAAGGC [TCAGAGAG]
The fraction ligated of the first is higher: 0.00503 for the first, 0.00214 for the second.

Compared with GAGACCGCAACTGAAAAGTTGTTATCAGAAATGGGGGTTGAATTTCTGCACGTAGAAGCAAAAGGC [TCAGAGGG G32T], GAGACCGCAACTGAAAAGTTGTTACAGAAATGGATGGGTTGATTTCTGCACGTAGAAGCAAAAGGC [CAGATGAT T38G G40T A41G] is higher in fraction ligated: 0.00695 for the first, 0.0186 for the second.

Compared with GAGACCGCAACTGAAAAGTTGTTACAGAAATGGTGGGTTGAATTTCTGCACGTAGAAGCAAAAGGC [CAGATGTG], GAGACCGCAACTGAAAAGTTGTTATCAGAAATGGTGGGTTGATTTCTGCACGTAGAAGCAAAAGGC [TCAGAGGT G32T T38G G40T A41G] is higher in fraction ligated: 0.00446 for the first, 0.0316 for the second.

Going from GAGACCGCAACTGAAAAGTTGTTATCAGAAATGATGGTTGAATTTCTGCACGTAGAAGCAAAAGGC [TCAGAGAT G32T] to GAGACCGCAACTGAAAAGTTGTTATCAGAAATGGAGGTTGAATTTCTGCACGTAGAAGCAAAAGGC [TCAGAGGA G32T], the fraction ligated falls from 0.00472 to 0.0037.

Going from GAGACCGCAACTGAAAAGTTGTTATCAGAATGGATGGGTTGATTTCTGCACGTAGAAGCAAAAGGC [TCAGTGAT T38G G40T A41G] to GAGACCGCAACTGAAAAGTTGTTATCGAAAGGATGGGTTGAATTTCTGCACGTAGAAGCAAAAGGC [TCGAGATG], the fraction ligated falls from 0.392 to 0.00545.

First: GAGACCGCAACTGAAAAGTTGTTACAAAATGGATGGGTTGAATTTCTGCACGTAGAAGCAAAAGGC [CAAAGATG A30T]
Second: GAGACCGCAACTGAAAAGTTGTTATCAGAAATGAGGGTTGAATTTCTGCACGTAGAAGCAAAAGGC [TCAGAGAG G32T]
The fraction ligated of the first is lower: 0.00974 for the first, 0.011 for the second.

Going from GAGACCGCAACTGAAAAGTTGTATCAGAAATGGATGGGTTGATTTCTGCACGTAGAAGCAAAAGGC [CAGATGAT T23A A24T T38G G40T A41G] to GAGACCGCAACTGAAAAGTTGTATCAGAAAGGATGGGTTGAATTTCTGCACGTAGAAGCAAAAGGC [CAGAGATG T23A A24T], the fraction ligated falls from 0.0927 to 0.00547.

First: GAGACCGCAACTGAAAAGTTGTTATCAGAATGGATGGGTTAATTTCTGCACGTAGAAGCAAAAGGC [TCAGTGAT T38G G40T]
Second: GAGACCGCAACTGAAAAGTTGTTATCAGAAATGGAGGGTTGATTTCTGCACGTAGAAGCAAAAGGC [TCAGAGGA G32T T38G G40T A41G]
The fraction ligated of the first is higher: 0.0275 for the first, 0.00714 for the second.

First: GAGACCGCAACTGAAAAGTTGTTATAGAAATGGATGGTTGAATTTCTGCACGTAGAAGCAAAAGGC [TAGATGAT]
Second: GAGACCGCAACTGAAAAGTTGTTATAGAAATGGAGGGTTGAATTTCTGCACGTAGAAGCAAAAGGC [TAGATGAG]
The fraction ligated of the first is lower: 0.00267 for the first, 0.00428 for the second.

First: GAGACCGCAACTGAAAAGTTGTTATCGAAATGATGGGTTGAATTTCTGCACGTAGAAGCAAAAGGC [TCGATATG]
Second: GAGACCGCAACTGAAAAGTTGTTATCAGAAATGATGGGTTGATTTCTGCACGTAGAAGCAAAAGGC [TCAGAGAT G32T T38G G40T A41G]
The fraction ligated of the first is lower: 0.0107 for the first, 0.0724 for the second.

First: GAGACCGCAACTGAAAAGTTGTTATCAGAAATGGAGGGTTAATTTCTGCACGTAGAAGCAAAAGGC [TCAGAGGA G32T T38G G40T]
Second: GAGACCGCAACTGAAAAGTTGTTATCAGAAAGGATGGGTTGATTTCTGCACGTAGAAGCAAAAGGC [TCAGAGAT T38G G40T A41G]
The fraction ligated of the first is lower: 0.00434 for the first, 0.0517 for the second.

Compared with GAGACCGCAACTGAAAAGTTGTTATCAAAATGGATGGGTTAATTTCTGCACGTAGAAGCAAAAGGC [TCAATGAT T38G G40T], GAGACCGCAACTGAAAAGTTGTTATCAGAAATGGATGGTTGATTTCTGCACGTAGAAGCAAAAGGC [TCAGAGGA G32T G36T T38G G40T A41G] is higher in fraction ligated: 0.0188 for the first, 0.0306 for the second.

Compared with GAGACCGCAACTGAAAAGTTGTTATCAGAAAGATGGGTTGAATTTCTGCACGTAGAAGCAAAAGGC [TCAGAATG], GAGACCGCAACTGAAAAGTTGTTATCAAAAGGATGGGTTGAATTTCTGCACGTAGAAGCAAAAGGC [TCAAGATG] is lower in fraction ligated: 0.00903 for the first, 0.00472 for the second.

Going from GAGACCGCAACTGAAAAGTTGTTTCAGAATGGATGGGTTGAATTTCTGCACGTAGAAGCAAAAGGC [CAGAGATG A24T A30T] to GAGACCGCAACTGAAAAGTTGTTATCAGAAATGGTGGTTGAATTTCTGCACGTAGAAGCAAAAGGC [TCAGAGGT G32T], the fraction ligated falls from 0.0149 to 0.00299.

First: GAGACCGCAACTGAAAAGTTGTTATCAGAAATGATGGGTTAATTTCTGCACGTAGAAGCAAAAGGC [TCAGAGAT G32T T38G G40T]
Second: GAGACCGCAACTGAAAAGTTGTTATAGAAATGATGGGTTGAATTTCTGCACGTAGAAGCAAAAGGC [TAGATATG]
The fraction ligated of the first is higher: 0.00839 for the first, 0.00408 for the second.

First: GAGACCGCAACTGAAAAGTTGTTTCAGAAATGGATGGTTGAATTTCTGCACGTAGAAGCAAAAGGC [CAGATGAT A24T]
Second: GAGACCGCAACTGAAAAGTTGTTTCAGAAAGGATGGGTTGAATTTCTGCACGTAGAAGCAAAAGGC [CAGAGATG A24T]
The fraction ligated of the first is higher: 0.00819 for the first, 0.00326 for the second.

First: GAGACCGCAACTGAAAAGTTGTTATCAGAAGGATGGGTTGAATTTCTGCACGTAGAAGCAAAAGGC [TCAGGATG]
Second: GAGACCGCAACTGAAAAGTTGTATCAGAAATGATGGGTTGAATTTCTGCACGTAGAAGCAAAAGGC [CAGATATG T23A A24T]
The fraction ligated of the first is higher: 0.00705 for the first, 0.00616 for the second.

Going from GAGACCGCAACTGAAAAGTTGTTACAGAAATGGATGGGTTAATTTCTGCACGTAGAAGCAAAAGGC [CAGATGAT T38G G40T] to GAGACCGCAACTGAAAAGTTGTTATCGAATGGATGGGTTGAATTTCTGCACGTAGAAGCAAAAGGC [TCGAGATG A30T], the fraction ligated rises from 0.00757 to 0.205.

Variants of: B2
Assay: as above
Conditions: with F1*subA RNA substrate (template-directed ligation), 42 °C
In short: as §1

GAGACCGCAACTGAAAAGTTGTTATCAGAAAGGATGGGTTGAATTTCTGCACGTAGAAGCAAAAGGC [ATGTGAA T32G] showed a fraction ligated of 0.0137.
